Laboratory results reported in publication PMC6222848, “Spatial Overlap of Claudin- and Phosphatidylinositol Phosphate-Binding Sites on the First PDZ Domain of Zonula Occludens 1 Studied by NMR” (Molecules : A Journal of Synthetic Chemistry and Natural …, 2018).
Where a chain is given by its changes, count along the chain named.

Experiments:
[1] = biological target: T1, GST-tagged mouse ZO-1(PDZ1) (residues 18–110) (mouse, UniProt P39447 18-110); experiment: SPR; BIACORE-3000; Trx-CLD3 peptide immobilized on a CM5 chip, PDZ domain as analyte (0 to 100 ug/mL), 20 uL/min; 10 mM HEPES pH 7.4, 150 mM NaCl, 3 mM EDTA, 0.005% Surfactant P20; KD by 'Affinity from steady-state'; no phytic acid; conditions: both partners purified
T1 construct: zonula occludens 1 (ZO-1), mouse, first PDZ domain, residues 18-110; The methods say that the GST fusion proteins were used for the SPR analysis; also called first PDZ domain of zonula occludens 1; wild-type; source: E. coli BL21 (DE3), purified (glutathione-Sepharose FF), dialyzed
T1 sequence (looked up): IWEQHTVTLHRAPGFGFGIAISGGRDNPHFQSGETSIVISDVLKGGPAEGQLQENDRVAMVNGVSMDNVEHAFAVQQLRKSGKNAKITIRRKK

[2] = biological target: T2, mouse ZO-1(PDZ1) Arg28 Ala-substituted mutant (mouse, UniProt P39447 18-110, Arg28 Ala-substituted); experiment: as above; conditions: both partners purified
T2 construct: zonula occludens 1 (ZO-1), mouse, first PDZ domain, residues 18-110, with Arg28 changed to Ala; Made by mutagenesis of the whole expression plasmid of ZO-1(PDZ1); no cleavage of GST is described for the mutants; also called Arg28 mutation; source: purified with glutathione-Sepharose, dialyzed
T2 sequence (looked up): T1 sequence (looked up) with R11A

B1: His6-tagged thioredoxin (Trx) fusion protein of mouse CLD-3 C-terminus (Trx-CLD3, residues 210–219) (domain or fragment, UniProt Q9Z0G9 210-219, looked up)
chain: GTAYDRKDYV
notes: claudin-3 (CLD-3), mouse, C-terminus, residues 210-219; also called Trx-CLD3 peptide; CLD-3 peptide; source: E. coli BL21 (DE3), purified (Ni2+-chelating-Sepharose), dialyzed
[1]
  Kd: 170 nM
[2]
  binding result: binds
